Experimental data: patent US20060257904, “Agglomeration protein cascades, compositions and methods regarding the same” (Q-RNA, Inc., published 2006)

Tests used:
[1] = molecular target: T1, hrPrP23-231 (pEHPrP23-231) (Homo sapiens, UniProt P04156 P04156:23-231); test: EMSA; conditions: tags: untagged; E. coli BL21(DE3) pLysS; label: 32P internal
Tau23 (0N3R) = Tau23 (0N3R) (UniProt P10636-2 P10636-2:1-352); test: EMSA; 125 ng RNA, 1 ug Tau, protection buffer pH 7.4; conditions: tags: 6-His; label: 32P internal
Tau441 (2N4R) = Tau441 (2N4R) (UniProt P10636-8 P10636-8:1-441); test: EMSA; 125 ng RNA, 1 ug Tau; affinity differs from Tau23; conditions: tags: no His tag; rPeptide; label: 32P internal
[2] = molecular target: hrPrP90-231 (C-terminal fragment) (Homo sapiens, UniProt P04156 P04156:90-231); test: filter; conditions: tags: GST fusion removed by thrombin; label: 32P internal
[3] = molecular target: hrPrP23-144 (N-terminal fragment) (Homo sapiens, UniProt P04156 P04156:23-144); test: filter; 20 nM protein, Buffer B plus tRNA; conditions: tags: GST fusion removed by thrombin; label: 32P internal
BSA = BSA (UniProt P02769 P02769:25-607); test: filter; background; 20 nM protein, 2 nM RNA, 10 ng/ul tRNA; conditions: tags: Ambion; label: 32P internal
lysozyme = lysozyme (UniProt P00698 P00698:19-147); test: as above; conditions: label: 32P internal
[4] = molecular target: T1, hrPrP23-231 (pEHPrP23-231); test: EMSA; 55 nM hrPrP, 10% BCS plus tRNA, urea gel; conditions: tags: untagged; E. coli BL21(DE3) pLysS; label: 32P internal

B1: RQ11+12 (ssRNA)
RNA: GGGGUUUCCAACCGGAAUUUGAGGGAUGCCUAGGCAUCCCCCGUGCGUCCCUUUACGAGGGAUUGUCGACUCUAGUCGACGUCUGGGCGAAAAAUGUACGAGAGGACCUUUUCGGUACAGACGGUACCUGAGGGUAUGCCUAGGCAUCCCCCGCGCCGGUUUCGGACCUCCAGUGCGUGUUACCGCACUGUCGACCC
B1: binds [1]; binds (Tau23 (0N3R)); binds (Tau441 (2N4R)). B1: no binding [2]; binds [3]; no binding (BSA). B1: no binding (lysozyme).

B2: MNV:AP1 (PrP-Amp) (ssRNA)
RNA: GGGUUCAUAGCCUAUUCGGCUUCGCGCAUGGGAAUUUGAGGGACGAUGGGGAAGUGGGAGCGCGUUUUAAAGGACCUUUUUCCCUCGCGUAGCUAGCUACGCGAGGUGACCCCCCGAAGGGGGGUGCCCC
B2: binds [4].
